In IntAct's records for PubMed 36931259:

B1: 14-3-3 protein sigma (Homo sapiens), P31947 (parent)
chain: MERASLIQKAKLAEQAERYEDMAAFMKGAVEKGEELSCEERNLLSVAYKNVVGGQRAAWRVLSSIEQKSNEEGSEEKGPEVREYREKVETELQGVCDTVLGLLDSHLIKEAGDAESRVFYLKMKGDYYRYLAEVATGDDKKRIIDSARSAYQEAMDISKKEMPPTNPIRLGLALNFSVFHYEIANSPEEAISLAKTTFDEAMADLHTLSEDSYKDSTLIMQLLRDNLTLWTADNAGEEGGEAPQEPQS
partner: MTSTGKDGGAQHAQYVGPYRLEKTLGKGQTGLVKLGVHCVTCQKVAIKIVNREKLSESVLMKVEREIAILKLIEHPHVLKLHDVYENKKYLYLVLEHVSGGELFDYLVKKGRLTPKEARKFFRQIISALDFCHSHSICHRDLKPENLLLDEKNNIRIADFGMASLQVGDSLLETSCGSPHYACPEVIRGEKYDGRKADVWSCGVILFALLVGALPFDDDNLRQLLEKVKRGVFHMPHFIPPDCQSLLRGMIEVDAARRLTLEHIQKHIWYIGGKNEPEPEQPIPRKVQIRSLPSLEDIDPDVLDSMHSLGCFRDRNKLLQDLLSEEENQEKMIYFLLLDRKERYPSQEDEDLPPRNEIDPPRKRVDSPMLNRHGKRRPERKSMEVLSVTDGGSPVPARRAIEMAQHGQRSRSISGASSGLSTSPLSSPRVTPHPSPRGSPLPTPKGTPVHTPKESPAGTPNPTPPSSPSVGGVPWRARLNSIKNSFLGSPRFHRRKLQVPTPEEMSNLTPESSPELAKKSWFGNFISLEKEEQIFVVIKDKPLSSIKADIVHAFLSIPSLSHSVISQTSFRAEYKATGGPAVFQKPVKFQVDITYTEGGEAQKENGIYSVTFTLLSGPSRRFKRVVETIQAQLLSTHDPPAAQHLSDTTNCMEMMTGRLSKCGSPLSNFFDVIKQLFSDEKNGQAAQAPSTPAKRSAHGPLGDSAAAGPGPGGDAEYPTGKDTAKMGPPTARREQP
B2: 14-3-3 protein sigma (Homo sapiens), P31947 (parent)
chain: B1 chain
partner: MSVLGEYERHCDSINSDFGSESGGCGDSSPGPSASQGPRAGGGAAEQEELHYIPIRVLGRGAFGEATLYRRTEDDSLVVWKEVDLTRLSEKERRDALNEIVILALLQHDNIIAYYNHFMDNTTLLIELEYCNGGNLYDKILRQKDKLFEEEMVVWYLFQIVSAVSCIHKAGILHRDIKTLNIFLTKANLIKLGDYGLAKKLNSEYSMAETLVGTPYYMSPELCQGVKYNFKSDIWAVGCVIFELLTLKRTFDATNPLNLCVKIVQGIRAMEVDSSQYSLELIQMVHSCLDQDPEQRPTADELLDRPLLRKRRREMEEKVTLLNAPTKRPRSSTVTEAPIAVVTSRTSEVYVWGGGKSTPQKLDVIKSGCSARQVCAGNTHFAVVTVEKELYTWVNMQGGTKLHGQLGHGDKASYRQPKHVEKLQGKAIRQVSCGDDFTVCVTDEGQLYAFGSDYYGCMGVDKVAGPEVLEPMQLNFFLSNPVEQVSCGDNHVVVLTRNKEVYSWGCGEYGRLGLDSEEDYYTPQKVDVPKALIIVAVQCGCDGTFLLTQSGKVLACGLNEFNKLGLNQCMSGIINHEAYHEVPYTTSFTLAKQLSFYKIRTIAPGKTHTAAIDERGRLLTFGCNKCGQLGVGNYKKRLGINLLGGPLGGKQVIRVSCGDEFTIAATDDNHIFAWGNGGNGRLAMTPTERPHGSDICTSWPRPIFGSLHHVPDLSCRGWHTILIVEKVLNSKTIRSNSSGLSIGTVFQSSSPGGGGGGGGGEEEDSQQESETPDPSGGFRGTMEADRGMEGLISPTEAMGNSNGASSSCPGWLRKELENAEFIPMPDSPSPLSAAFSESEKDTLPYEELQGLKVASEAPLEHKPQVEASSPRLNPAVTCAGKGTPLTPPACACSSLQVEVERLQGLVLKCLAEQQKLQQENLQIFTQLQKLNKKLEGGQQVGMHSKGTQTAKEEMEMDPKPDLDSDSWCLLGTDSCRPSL
B3: 14-3-3 protein sigma (Homo sapiens), P31947 (parent)
chain: B1 chain
partner: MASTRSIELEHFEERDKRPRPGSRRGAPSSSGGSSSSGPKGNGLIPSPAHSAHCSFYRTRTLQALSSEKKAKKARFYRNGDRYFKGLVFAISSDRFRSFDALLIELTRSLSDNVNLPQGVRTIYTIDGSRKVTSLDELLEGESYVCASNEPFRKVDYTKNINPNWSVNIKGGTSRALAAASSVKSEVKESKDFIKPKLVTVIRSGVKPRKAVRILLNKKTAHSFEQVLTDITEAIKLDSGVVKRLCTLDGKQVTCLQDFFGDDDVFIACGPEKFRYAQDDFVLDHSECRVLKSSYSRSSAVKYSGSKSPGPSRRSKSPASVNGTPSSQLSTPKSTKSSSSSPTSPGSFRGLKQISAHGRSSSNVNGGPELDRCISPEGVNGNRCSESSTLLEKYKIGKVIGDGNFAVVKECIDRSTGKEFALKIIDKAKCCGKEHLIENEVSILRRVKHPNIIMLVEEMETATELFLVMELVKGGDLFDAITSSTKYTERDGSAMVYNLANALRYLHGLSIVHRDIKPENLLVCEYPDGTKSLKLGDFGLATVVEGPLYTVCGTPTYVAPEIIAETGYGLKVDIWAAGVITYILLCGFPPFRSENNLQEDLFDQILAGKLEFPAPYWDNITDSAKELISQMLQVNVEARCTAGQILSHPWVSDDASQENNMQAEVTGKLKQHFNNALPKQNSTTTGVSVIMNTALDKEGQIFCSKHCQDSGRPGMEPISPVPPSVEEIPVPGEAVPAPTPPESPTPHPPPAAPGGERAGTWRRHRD
B4: 14-3-3 protein sigma (Homo sapiens), P31947 (parent)
chain: B1 chain
partner: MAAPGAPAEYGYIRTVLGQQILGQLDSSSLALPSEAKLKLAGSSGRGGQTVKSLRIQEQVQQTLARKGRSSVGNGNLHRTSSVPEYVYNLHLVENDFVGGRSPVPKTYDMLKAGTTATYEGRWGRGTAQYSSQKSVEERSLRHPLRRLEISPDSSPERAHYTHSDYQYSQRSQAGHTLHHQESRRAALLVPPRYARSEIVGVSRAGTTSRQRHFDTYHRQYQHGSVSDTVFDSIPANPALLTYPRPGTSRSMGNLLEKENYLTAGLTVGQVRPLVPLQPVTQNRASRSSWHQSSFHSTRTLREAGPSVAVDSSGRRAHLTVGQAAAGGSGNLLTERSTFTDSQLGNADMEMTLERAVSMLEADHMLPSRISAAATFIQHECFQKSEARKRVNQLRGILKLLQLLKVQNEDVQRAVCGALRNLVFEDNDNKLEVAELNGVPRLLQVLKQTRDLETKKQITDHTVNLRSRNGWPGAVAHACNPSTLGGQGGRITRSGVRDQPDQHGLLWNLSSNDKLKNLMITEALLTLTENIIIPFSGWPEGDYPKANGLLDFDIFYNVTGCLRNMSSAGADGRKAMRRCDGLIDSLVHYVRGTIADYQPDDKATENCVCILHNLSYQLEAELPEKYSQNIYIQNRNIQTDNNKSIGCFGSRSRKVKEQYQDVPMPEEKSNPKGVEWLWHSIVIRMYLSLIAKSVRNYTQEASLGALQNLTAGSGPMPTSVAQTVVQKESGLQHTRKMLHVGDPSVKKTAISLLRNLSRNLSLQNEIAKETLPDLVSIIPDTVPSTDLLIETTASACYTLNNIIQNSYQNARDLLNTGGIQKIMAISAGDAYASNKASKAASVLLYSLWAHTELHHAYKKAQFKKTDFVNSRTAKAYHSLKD
B5: 14-3-3 protein sigma (Homo sapiens), P31947 (parent)
chain: B1 chain
partner: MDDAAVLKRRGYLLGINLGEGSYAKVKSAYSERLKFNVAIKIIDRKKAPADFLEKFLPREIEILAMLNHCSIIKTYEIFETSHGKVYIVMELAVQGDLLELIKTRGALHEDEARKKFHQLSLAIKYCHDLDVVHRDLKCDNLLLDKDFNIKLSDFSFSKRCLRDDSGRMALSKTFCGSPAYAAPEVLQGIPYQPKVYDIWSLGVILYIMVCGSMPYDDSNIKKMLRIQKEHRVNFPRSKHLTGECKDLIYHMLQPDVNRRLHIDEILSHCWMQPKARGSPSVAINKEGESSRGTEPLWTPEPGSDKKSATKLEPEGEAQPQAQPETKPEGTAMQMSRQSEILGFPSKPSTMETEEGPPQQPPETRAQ

Variants of: B1
Details: with brsk2_human BRSK2, Q8IWQ3

| effect of a mutation on the interaction | Variant |
| --- | --- |
| decreasing interaction strength | K49E;R56E;V178D |

Variants of: B2
Details: with nek9_human NEK9, Q8TD19

| Variant | effect of a mutation on the interaction |
| --- | --- |
| K49E;R56E;V178D | decreasing interaction strength |

Variants of: B3
Details: with dclk2_human DCLK2, Q8N568

| effect of a mutation on the interaction | Variant |
| --- | --- |
| decreasing interaction strength | K49E;R56E;V178D |

Variants of: B4
Details: with pkp2_human PKP2, Q99959

| effect of a mutation on the interaction | Variant |
| --- | --- |
| decreasing interaction strength | K49E;R56E;V178D |

Variants of: B5
Details: with tssk1_human TSSK1B

| effect of a mutation on the interaction | Variant |
| --- | --- |
| decreasing interaction strength | K49E;R56E;V178D |
